Results from patent US20250361274A1, “PEPTIDE AND PEPTIDE-CONTAINING AGENT” (PEPTIDREAM INC., priority 2022, published 2025).
Numbered stars: 1 amine (or outer) side, 2 acyl side, 3 side chain; on linkers, the order of the positions; unused ones are H or OH. Bridge positions count the residues as written; N and C are the ends. Square brackets hold non-standard residues; d marks the D form. Side chains are listed from the residue outwards. Ends that are not written are not given here. Peptide text beside a SMILES is read from it. I, II: the chains in the order shown. * marks the point of attachment. ξ: configuration not given here. KCOpipzaa = N6-(4-(carboxymethyl)piperazine-1-carbonyl)-L-lysine, O=C(NCCCC[C@H](N[*:1])C(=O)[*:2])N1CCN(CC(=O)[*:3])CC1; Bph3F = (S)-2-amino-3-(3'-fluoro-[1,1'-biphenyl]-4-yl)propanoic acid, O=C([C@H](Cc1ccc(-c2cccc(F)c2)cc1)N[*:1])[*:2]; X10 = N=C(N)NCCC[C@H](CC(=O)[C@H](CCCCNC(=O)N1CCN(CC(=O)O)CC1)N[*:2])C(=O)[*:1]; X9 = O=C([C@H](Cc1ccc(-c2cccc(F)c2)cc1)N[*:1])[*:2]; Ala(2-NH2-4-pyridyl) = Nc1cc(C[C@H](N)C(=O)O)ccn1; 3Pal(6-Ph) = N[C@@H](Cc1ccc(-c2ccccc2)nc1)C(=O)O; Phe(4-COOH) = N[C@@H](Cc1ccc(C(=O)O)cc1)C(=O)O; NMePhe(4-Me) = CN[C@@H](Cc1ccc(C)cc1)C(=O)O; Piperazinyl(4-CH2COOH) = O=C(O)CN1CCN(*)CC1; Bip = N[C@@H](Cc1ccc(-c2ccccc2)cc1)C(=O)O; Phe(4-F) = N[C@@H](Cc1ccc(F)cc1)C(=O)O; Hyp = O=C(O)[C@@H]1C[C@@H](O)CN1; NMeF = CN[C@@H](Cc1ccccc1)C(=O)O; 4Pal = N[C@@H](Cc1ccncc1)C(=O)O; Aad = N[C@@H](CCCC(=O)O)C(=O)O; Cha = N[C@@H](CC1CCCCC1)C(=O)O; Cba = N[C@@H](CC1CCC1)C(=O)O; Abu = CC[C@H](N)C(=O)O; X5 = O=C(C[*:1])[*:2]; CO = O=C([*:1])[*:2]; ξC = NC(CS)C(=O)O; βAla = NCCC(=O)O

What was measured:
BMP7 = biological target: T1, BMP7 (Homo sapiens, UniProt P18075); assay: BMP7 signal transduction inhibitory activity: SMAD1 phosphorylation by BMP7 stimulus, A549 cells; assay type: cell-based; conditions: for aLISA BMP7: A549 cells, peptides of Synthesis 2
T1 sequence (P18075 293-431): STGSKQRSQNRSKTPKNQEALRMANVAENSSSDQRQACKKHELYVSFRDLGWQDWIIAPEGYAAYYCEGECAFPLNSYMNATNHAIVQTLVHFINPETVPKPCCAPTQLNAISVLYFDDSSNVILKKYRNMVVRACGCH
Summary of the method: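 Cell line A549; stimulus BMP7 10 nM; endpoint pSMAD1. Peptide doses: three concentrations (1–1,000 nM range) or 8 × 1/3 dilutions from 100/1,000 nM.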

BMP4 = biological target: T2, BMP4 (Homo sapiens, UniProt P12644); assay: BMP4 signal transduction inhibitory activity: SMAD1 phosphorylation by BMP4 stimulus, AlphaLISA SureFire, A549 cells; assay type: cell-based; conditions: for aLISA BMP4: A549 cells, peptides of Synthesis 2
T2 sequence (P12644 293-408): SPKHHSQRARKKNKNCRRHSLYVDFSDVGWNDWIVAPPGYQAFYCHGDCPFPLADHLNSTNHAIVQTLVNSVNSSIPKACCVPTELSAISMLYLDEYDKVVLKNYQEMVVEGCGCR

[1] = inhibition of SMAD1 phosphorylation by BMP7 stimulus, classes A-D, ND
[2] = inhibition of SMAD1 phosphorylation by BMP4 stimulus, classes A-C, ND
[3] = SMAD1 phosphorylation, BMP7 10 nM, peptide conc. in assay 1, 10, 100 nM
[4] = SMAD1 phosphorylation, BMP4 0.2 nM, peptide conc. in assay 0.2, 2, 20 nM
[5] = 10 nM BMP7, peptide 1, 10, 100 nM
[6] = SMAD1 phosphorylation, peptide 0.02, 0.2, 2 nM
[7] = BMP7 10 nM stimulus, peptide conc. in assay 1, 10, 100 nM
[8] = BMP4 0.2 nM stimulus, peptide conc. in assay 0.2, 2, 20 nM

Compound: 114 (EKVYVKRFPYPFYFFSCG; not fully specified; MOD_RES 2 K represents N6-(4-(Carboxymethyl) piperazine-1-carbonyl)-L-lysine(KCOpipzaa); MOD_RES 6 K represents N6-(4-(Carboxymethyl) piperazine-1-carbonyl)-L-lysine(KCOpipzaa); MOD_RES 8 F represents (S)-3-(1,1'-Biphenyl-4-yl)-2-aminopropanoic acid(Bph); MOD_RES 12 F represents (S)-3-(1,1'-Biphenyl-4-yl)-2-aminopropanoic acid(Bph); MOD_RES 14 F represents (S)-4-(2-amino-2-carboxyethyl)benzoic aci) [compound 114]
- aLISA BMP7 (BMP7; [1]): C (showed less than 50% of inhibitory activity in 10 nM-addition zone and showed 50% or more of inhibitory activity in 100 nM-addition zone)
- aLISA BMP4 (BMP4; [2]): A (showed an inhibitory activity of 50% or more in a zone to which the peptide was added to in an amount of 0.2 nM)

Compound: 351 (FG[NMeF]G[Bip]GDD[Cha]A[NMeF]L[Ala(2-NH2-4-pyridyl)]CG-NH2; not fully specified (N-terminus, bridges); also: cyclic peptide, ring closure not given here) [compound 351]
- aLISA BMP7 (10 nM) % inh (BMP7; [3]): D (showed less than 30% of inhibitory activity in 10 nM-addition zone and showed 30% or more of inhibitory activity in 100 nM-addition zone)
- aLISA BMP4 (0.2 nM) % inh (BMP4; [4]): ND (the inhibitory activity was less than 30% at the maximum concentration evaluated)

Compound: 118 (EKVYVKRFPYPFYFFSCAE; not fully specified; MOD_RES 2 K represents N6-(4-(Carboxymethyl) piperazine-1-carbonyl)-L-lysine(KCOpipzaa); MOD_RES 6 K represents N6-(4-(Carboxymethyl) piperazine-1-carbonyl)-L-lysine(KCOpipzaa); MOD_RES 8 F represents (S)-3-(1,1'-Biphenyl-4-yl)-2-aminopropanoic acid(Bph); MOD_RES 12 F represents (S)-3-(1,1'-Biphenyl-4-yl)-2-aminopropanoic acid(Bph); MOD_RES 14 F represents (S)-4-(2-amino-2-carboxyethyl)benzoic aci) [compound 118]
- aLISA BMP7 (BMP7; [1]): C (showed less than 50% of inhibitory activity in 10 nM-addition zone and showed 50% or more of inhibitory activity in 100 nM-addition zone)
- aLISA BMP4 (BMP4; [2]): A (showed an inhibitory activity of 50% or more in a zone to which the peptide was added to in an amount of 0.2 nM)

Compound: 37 ({CH2CO}-AK(Ac)VYVDK[Bip]PYP[Bip]Y[Phe(4-COOH)][Phe(4-COOH)]SCG-NH2; thioether N-17; not fully specified) [compound 37]
- aLISA BMP7 (BMP7; [5]): ND (the inhibitory activity was less than 30% at the maximum concentration evaluated)
- aLISA BMP4 (BMP4; [6]): A (showed an inhibitory activity of 50% or more in a zone to which the peptide was added to in an amount of 0.2 nM)

Compound: 421 ([Phe(4-F)]G[NMeF]G[3Pal(6-Ph)]GDE[Cha][Aad][NMePhe(4-Me)]L[Abu]C[βAla][dE]; also: cyclic peptide, ring closure not given here) [compound 421]
- aLISA BMP7 (10 nM) % inh (BMP7; [7]): D (showed less than 30% of inhibitory activity in 10 nM-addition zone and showed 30% or more of inhibitory activity in 100 nM-addition zone)
- aLISA BMP4 (0.2 nM) % inh (BMP4; [8]): ND (the inhibitory activity was less than 30% at the maximum concentration evaluated)

Compound: 124 ({CH2CO}-ERV[Phe(4-COOH)]V[KCOpipzaa]R[Bip]SYV[Bip]Y[Phe(4-COOH)][Phe(4-COOH)]SC[βAla][dE]-OH; thioether N-17; not fully specified) [compound 124]
- aLISA BMP7 (BMP7; [1]): C (showed less than 50% of inhibitory activity in 10 nM-addition zone and showed 50% or more of inhibitory activity in 100 nM-addition zone)
- aLISA BMP4 (BMP4; [2]): A (showed an inhibitory activity of 50% or more in a zone to which the peptide was added to in an amount of 0.2 nM)

Compound: 397 (FG[NMePhe(4-Me)]G[Bip]GDD[Cha]A[NMePhe(4-Me)]LHCG-NH2; not fully specified) [compound 397]
- aLISA BMP7 (10 nM) % inh (BMP7; [7]): D (showed less than 30% of inhibitory activity in 10 nM-addition zone and showed 30% or more of inhibitory activity in 100 nM-addition zone)
- aLISA BMP4 (0.2 nM) % inh (BMP4; [8]): ND (the inhibitory activity was less than 30% at the maximum concentration evaluated)

Compound: 253 (ERVYVSR[3Pal(6-Ph)]SYV[Bip][4Pal][Phe(4-COOH)][Phe(4-COOH)]SCG-NH2; not fully specified) [compound 253]
- aLIZA BMP7 (10 nM) % Inh (BMP7; SMAD1 phosphorylation by BMP7 stimulus, peptide conc. in assay 10, 100, 1000 nM, class symbols): ND (the inhibitory activity was less than 30% at the maximum concentration evaluated)
- aLIZA BMP4 (0.2 nM) % Inh (BMP4; SMAD1 phosphorylation by BMP4 stimulus, peptide conc. in assay 0.02, 0.2, 2 nM, class symbols): C (showed less than 30% of inhibitory activity in 0.2 nM-addition zone and showed 30% or more of inhibitory activity in 2 nM-addition zone)

Compound: CC(C)[C@@H]1NC(=O)[C@H](Cc2ccc(C(=O)O)cc2)NC(=O)[C@H](C(C)C)NC(=O)[C@H](CCCNC(=N)N)NC(=O)[C@H](CCC(=O)O)NC(=O)CSCC(C(=O)NCC(N)=O)NC(=O)[C@H](CO)NC(=O)[C@H](Cc2ccc(C(=O)O)cc2)NC(=O)[C@H](Cc2ccc(C(=O)O)cc2)NC(=O)[C@H](Cc2ccc(O)cc2)NC(=O)[C@H](Cc2ccc(-c3cccc(F)c3)cc2)NC(=O)[C@@H]2C[C@@H](O)CN2C(=O)[C@H](Cc2ccc(O)cc2)NC(=O)[C@H](CCCCNC(=O)N2CCN(CC(=O)O)CC2)NC(=O)[C@H](Cc2ccc(-c3ccccc3)nc2)NC(=O)[C@H](CCCNC(=N)N)CC(=O)[C@H](CCCCNC(=O)N2CCN(CC(=O)O)CC2)NC1=O (stereo partly shown) [SEQ ID No. 311, ClAc-E-R-V-F4COO-V-KCOpipzaa-R-3Py6Ph-KCOpipzaa-Y-Hyp-Bph3F-Y-F4COO-F4COO-S-C-G-NH2] (I: [3Pal(6-Ph)]K([CO-Piperazinyl(4-CH2COOH)])Y[Hyp][X9]Y[Phe(4-COOH)][Phe(4-COOH)]S[ξC]G-NH2 / II: ERV[Phe(4-COOH)]V; linker I:10-II:N via X5; linker I:N-II:C via X10)
- aLISA BMP7 (BMP7; [5]): C (showed less than 50% of inhibitory activity in 10 nM-addition zone and showed 50% or more of inhibitory activity in 100 nM-addition zone)
- aLISA BMP4 (BMP4; [6]): A (showed an inhibitory activity of 50% or more in a zone to which the peptide was added to in an amount of 0.2 nM)

Compound: 40 ({CH2CO}-ASVYVDK[Bip]PYP[Bip]Y[Phe(4-COOH)][Phe(4-COOH)]SCG-NH2; thioether N-17; not fully specified) [compound 40]
- aLISA BMP7 (BMP7; [5]): ND (the inhibitory activity was less than 30% at the maximum concentration evaluated)
- aLISA BMP4 (BMP4; [6]): D (showed inhibitory activity of less than 50% in 2 nM-addition zone)

Compound: 18 ({CH2CO}-ARVYVDR[Bip]SYP[Bip]Y[Phe(4-COOH)][Phe(4-COOH)]SCG-NH2; thioether N-17; not fully specified) [compound 18]
- aLISA BMP7 (BMP7; [5]): C (showed less than 50% of inhibitory activity in 10 nM-addition zone and showed 50% or more of inhibitory activity in 100 nM-addition zone)
- aLISA BMP4 (BMP4; [6]): A (showed an inhibitory activity of 50% or more in a zone to which the peptide was added to in an amount of 0.2 nM)

Compound: 353 (FG[NMeF]G[Bip]GDD[Cha]A[NMeF]LSCG-NH2; not fully specified (N-terminus, bridges); also: cyclic peptide, ring closure not given here) [compound 353]
- aLISA BMP7 (10 nM) % inh (BMP7; [3]): D (showed less than 30% of inhibitory activity in 10 nM-addition zone and showed 30% or more of inhibitory activity in 100 nM-addition zone)
- aLISA BMP4 (0.2 nM) % inh (BMP4; [4]): ND (the inhibitory activity was less than 30% at the maximum concentration evaluated)

Compound: 313 (ERV[Phe(4-COOH)][Cba][KCOpipzaa]R[3Pal(6-Ph)][KCOpipzaa]Y[Hyp][Bph3F]Y[Phe(4-COOH)][Phe(4-COOH)]SCG-NH2; not fully specified) [compound 313]
- aLIZA BMP7 (10 nM) % inh (BMP7; BMP7 10 nM, peptide 10, 100, 1000 nM, Table 6): E (showed less than 30% of inhibitory activity in 100 nM-addition zone and showed 30% or more of inhibitory activity in 1,000 nM-addition zone)
- aLIZA BMP4 (0.2 nM) % inh (BMP4; BMP4 0.2 nM, peptide 0.02, 0.2, 2 nM, Table 6): A (showed 30% or more of inhibitory activity in a zone to which the peptide was added in an amount of 0.02 nM)

Compound: 378 (FG[NMeF]G[Phe(4-F)]GDD[Cha]A[NMeF]LHCG-NH2; not fully specified) [compound 378]
- aLISA BMP7 (10 nM) % inh (BMP7; BMP7 10 nM stimulus, peptide conc. in assay 10, 30, 90 nM): F (showed less than 30% of inhibitory activity in 10 nM-addition zone and showed 30% or more of inhibitory activity in 30 nM-addition zone)
- aLISA BMP4 (0.2 nM) % inh (BMP4; BMP4 0.2 nM stimulus, peptide conc. in assay 2, 20, 200 nM): ND (the inhibitory activity was less than 30% at the maximum concentration evaluated)
